± gives the uncertainty stated by the source.

For 43 variants, abundance fitness results are on record in the Human Domainome abundance scans (Beltran et al. 2025).

B1: DnaJ homolog subfamily C member 5, residues 16 to 77; numbered along this chain, Q9H3Z4 (parent)
chain: LYHVLGLDKNATSDDIKKSYRKLALKYHPDKNPDNPEAADKFKEINNAHAILTDATKRNIYD

Variants of B1 are the subject of this data set. In words: abundance fitness (aPCA) (normalised: wild type 0, dead -1); higher = more abundant; growth selection in yeast, the domain comes from the species named. The note with it: Homo sapiens.
Take LYHVLGLDKNATSDTIKKSYRKLALKYHPDKNPDNPEAADKFKEINNAHAILTDATKRNIYD [D15T]: the abundance fitness is -0.367 ± 0.11.
Next, LYHVLGLDKNATSDYIKKSYRKLALKYHPDKNPDNPEAADKFKEINNAHAILTDATKRNIYD [D15Y]: -0.888 ± 0.2; LYHVLGLDKNATSDWIKKSYRKLALKYHPDKNPDNPEAADKFKEINNAHAILTDATKRNIYD [D15W]: -0.271 ± 0.069.
Next, LYHVLGLDKNATSDPIKKSYRKLALKYHPDKNPDNPEAADKFKEINNAHAILTDATKRNIYD [D15P]: -0.643 ± 0.12; LYHVLGLDKNATSDRIKKSYRKLALKYHPDKNPDNPEAADKFKEINNAHAILTDATKRNIYD [D15R]: -0.693 ± 0.084; LYHVLGLDKNATSDSIKKSYRKLALKYHPDKNPDNPEAADKFKEINNAHAILTDATKRNIYD [D15S]: -0.382 ± 0.092.
Consider LYHVLGLDKNATSDDISKSYRKLALKYHPDKNPDNPEAADKFKEINNAHAILTDATKRNIYD [K17S], for which the abundance fitness was -0.153 ± 0.075.
With LYHVLGLDKNATSDDIMKSYRKLALKYHPDKNPDNPEAADKFKEINNAHAILTDATKRNIYD [K17M] the figure was -0.09 ± 0.09; with LYHVLGLDKNATSDDIQKSYRKLALKYHPDKNPDNPEAADKFKEINNAHAILTDATKRNIYD [K17Q], -0.063 ± 0.09.
With LYHVLGLDKNATSDDIEKSYRKLALKYHPDKNPDNPEAADKFKEINNAHAILTDATKRNIYD [K17E] the figure was 0.084 ± 0.088; with LYHVLGLDKNATSDDIHKSYRKLALKYHPDKNPDNPEAADKFKEINNAHAILTDATKRNIYD [K17H], 0.057 ± 0.13.
Next, LYHVLGLDKNATSDDINKSYRKLALKYHPDKNPDNPEAADKFKEINNAHAILTDATKRNIYD [K17N]: -0.248 ± 0.34; LYHVLGLDKNATSDDIVKSYRKLALKYHPDKNPDNPEAADKFKEINNAHAILTDATKRNIYD [K17V]: 0.039 ± 0.079; LYHVLGLDKNATSDDIRKSYRKLALKYHPDKNPDNPEAADKFKEINNAHAILTDATKRNIYD [K17R]: -0.032 ± 0.061.
With LYHVLGLDKNATSDDIWKSYRKLALKYHPDKNPDNPEAADKFKEINNAHAILTDATKRNIYD [K17W], the abundance fitness is -0.204 ± 0.069.
Regarding LYHVLGLDKNATSDDIIKSYRKLALKYHPDKNPDNPEAADKFKEINNAHAILTDATKRNIYD [K17I], the abundance fitness is -0.107 ± 0.17.
Regarding LYHVLGLDKNATSDDIPKSYRKLALKYHPDKNPDNPEAADKFKEINNAHAILTDATKRNIYD [K17P], the abundance fitness is -1.31 ± 0.13.
On to LYHVLGLDKNATSDDICKSYRKLALKYHPDKNPDNPEAADKFKEINNAHAILTDATKRNIYD [K17C], for which the abundance fitness was -0.361 ± 0.1.
With LYHVLGLDKNATSDDIAKSYRKLALKYHPDKNPDNPEAADKFKEINNAHAILTDATKRNIYD [K17A] the figure was 0.048 ± 0.068; with LYHVLGLDKNATSDDIGKSYRKLALKYHPDKNPDNPEAADKFKEINNAHAILTDATKRNIYD [K17G], -0.251 ± 0.066; with LYHVLGLDKNATSDDIFKSYRKLALKYHPDKNPDNPEAADKFKEINNAHAILTDATKRNIYD [K17F], -0.52 ± 0.19.
Take LYHVLGLDKNATSDDITKSYRKLALKYHPDKNPDNPEAADKFKEINNAHAILTDATKRNIYD [K17T]: the abundance fitness was -0.07 ± 0.096.
With LYHVLGLDKNATSDDILKSYRKLALKYHPDKNPDNPEAADKFKEINNAHAILTDATKRNIYD [K17L] the figure was -0.18 ± 0.07; with LYHVLGLDKNATSDDIDKSYRKLALKYHPDKNPDNPEAADKFKEINNAHAILTDATKRNIYD [K17D], -0.477 ± 0.47.
Consider LYHVLGLDKNATSDDNKKSYRKLALKYHPDKNPDNPEAADKFKEINNAHAILTDATKRNIYD [I16N], for which the abundance fitness was -0.615 ± 0.18.
For the variant LYHVLGLDKNATSDDMKKSYRKLALKYHPDKNPDNPEAADKFKEINNAHAILTDATKRNIYD [I16M], the abundance fitness is -0.65 ± 0.091.
Turning to LYHVLGLDKNATSDDWKKSYRKLALKYHPDKNPDNPEAADKFKEINNAHAILTDATKRNIYD [I16W], the abundance fitness is -0.998 ± 0.094.
Turning to LYHVLGLDKNATSDDKKKSYRKLALKYHPDKNPDNPEAADKFKEINNAHAILTDATKRNIYD [I16K], the abundance fitness was -0.45 ± 0.098.
With LYHVLGLDKNATSDDRKKSYRKLALKYHPDKNPDNPEAADKFKEINNAHAILTDATKRNIYD [I16R] the figure was -0.586 ± 0.058; with LYHVLGLDKNATSDDCKKSYRKLALKYHPDKNPDNPEAADKFKEINNAHAILTDATKRNIYD [I16C], -0.44 ± 0.12.
Next, LYHVLGLDKNATSDDFKKSYRKLALKYHPDKNPDNPEAADKFKEINNAHAILTDATKRNIYD [I16F]: -0.064 ± 0.18; LYHVLGLDKNATSDDEKKSYRKLALKYHPDKNPDNPEAADKFKEINNAHAILTDATKRNIYD [I16E]: -0.305 ± 0.11; LYHVLGLDKNATSDDLKKSYRKLALKYHPDKNPDNPEAADKFKEINNAHAILTDATKRNIYD [I16L]: -0.285 ± 0.065.
In the case of LYHVLGLDKNATSDDPKKSYRKLALKYHPDKNPDNPEAADKFKEINNAHAILTDATKRNIYD [I16P], the abundance fitness is -0.587 ± 0.095.
With LYHVLGLDKNATSDDAKKSYRKLALKYHPDKNPDNPEAADKFKEINNAHAILTDATKRNIYD [I16A] the figure was -0.32 ± 0.089; with LYHVLGLDKNATSDDSKKSYRKLALKYHPDKNPDNPEAADKFKEINNAHAILTDATKRNIYD [I16S], -0.435 ± 0.08.
As to LYHVLGLDKNATSDDVKKSYRKLALKYHPDKNPDNPEAADKFKEINNAHAILTDATKRNIYD [I16V], the abundance fitness is -0.238 ± 0.072.
Turning to LYHVLGLDKNATSDDYKKSYRKLALKYHPDKNPDNPEAADKFKEINNAHAILTDATKRNIYD [I16Y], the abundance fitness is -0.649 ± 0.14.
With LYHVLGLDKNATSDDQKKSYRKLALKYHPDKNPDNPEAADKFKEINNAHAILTDATKRNIYD [I16Q] the figure was -0.437 ± 0.1.
As for LYHVLGLDKNATSDDGKKSYRKLALKYHPDKNPDNPEAADKFKEINNAHAILTDATKRNIYD [I16G], the abundance fitness was -0.442 ± 0.073.
With LYHVLGLDKNATSDDDKKSYRKLALKYHPDKNPDNPEAADKFKEINNAHAILTDATKRNIYD [I16D] the figure was -0.567 ± 0.13; with LYHVLGLDKNATSDDHKKSYRKLALKYHPDKNPDNPEAADKFKEINNAHAILTDATKRNIYD [I16H], -0.723 ± 0.13.
Next, LYHVLGLDKNATSDDIKASYRKLALKYHPDKNPDNPEAADKFKEINNAHAILTDATKRNIYD [K18A]: 0.079 ± 0.1.
